Consider 63 sequences from the supplement of paper PMC9112550, “Optimization of the antimicrobial peptide Bac7 by deep mutational scanning” (BMC Biology, 2022).
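Also: peptides expressed intracellularly from a pBAD plasmid library in pooled LB shake-flask culture, induced with 0.3% L-arabinose, DNA abundance read by NGS, three biological replicates, DESeq2 with apeglm shrinkage.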

The data set concerns Escherichia coli TOP10. The data set is described as follows: shrunken log2 fold change of peptide-encoding DNA abundance (4.5 h post-induction vs induction); higher = less antimicrobial activity (less host growth inhibition). As to conditions: time post-induction: 4.5 h; library: site-saturation at positions 5, 18, 19, 20.
Turning to RRIRRRPPRLPRPRPRPHGAPRP, the “shrunken log2 fold change” value turned out to be 0.284. As to RRIRIRPPRLPRPRPRPGSRPRP, the “shrunken log2 fold change” value is -0.0379.

In the case of RRIRLRPPRLPRPRPRPDGYPRP, the “shrunken log2 fold change” value was 0.0385. The result for RRIRKRPPRLPRPRPRPCSVPRP reads 0.0108; that for RRIRARPPRLPRPRPRPKGMPRP, 0.4. The result for RRIRGRPPRLPRPRPRPWSPPRP reads 0.178; that for RRIRDRPPRLPRPRPRPKWGPRP, 0.105; that for RRIRFRPPRLPRPRPRPTFEPRP, -0.00113.

For the sequence RRIRMRPPRLPRPRPRPWCRPRP, the “shrunken log2 fold change” value was determined as 0.0521. The result for RRIRCRPPRLPRPRPRPDLMPRP reads -0.424.

Take RRIRMRPPRLPRPRPRPVVLPRP: the “shrunken log2 fold change” value came to 0.272.

Consider RRIRARPPRLPRPRPRPDPCPRP, for which the “shrunken log2 fold change” value worked out at 0.428. The result for RRIRQRPPRLPRPRPRPLHFPRP reads -0.0222; that for RRIRPRPPRLPRPRPRPRDVPRP, 0.0755. To RRIRGRPPRLPRPRPRPEWEPRP belongs 0.00476; to RRIRHRPPRLPRPRPRPSNNPRP, -0.549. As to RRIRYRPPRLPRPRPRPANTPRP, the “shrunken log2 fold change” value was -0.589. The result for RRIRFRPPRLPRPRPRPTTYPRP reads -0.608.

In the case of RRIRWRPPRLPRPRPRPIHRPRP, the “shrunken log2 fold change” value is -0.0434. With RRIRCRPPRLPRPRPRPPGTPRP, the “shrunken log2 fold change” value turned out to be 0.519. The result for RRIRPRPPRLPRPRPRPHYKPRP reads -0.874; that for RRIRDRPPRLPRPRPRPCTTPRP, -0.00176; that for RRIRSRPPRLPRPRPRPIRQPRP, -0.0752. To RRIRQRPPRLPRPRPRPPAIPRP belongs -0.0632.

For RRIRHRPPRLPRPRPRPWVSPRP, the “shrunken log2 fold change” value is -0.683. To RRIRKRPPRLPRPRPRPCHRPRP belongs 0.00781. As to RRIRPRPPRLPRPRPRPSMTPRP, the “shrunken log2 fold change” value turned out to be 0.496. Consider RRIRHRPPRLPRPRPRPIDTPRP, for which the “shrunken log2 fold change” value is -0.291. Take RRIRVRPPRLPRPRPRPRAAPRP: the “shrunken log2 fold change” value stood at 0.425.

For the sequence RRIRGRPPRLPRPRPRPGPTPRP, the “shrunken log2 fold change” value worked out at 1.51.

In the case of RRIRKRPPRLPRPRPRPWIEPRP, the “shrunken log2 fold change” value turned out to be 0.00935.

With RRIRNRPPRLPRPRPRPYYCPRP, the “shrunken log2 fold change” value is -0.0454.

On to RRIRTRPPRLPRPRPRPINPPRP, for which the “shrunken log2 fold change” value was -0.0274. To RRIRIRPPRLPRPRPRPWNYPRP belongs 0.0299.

Turning to RRIRHRPPRLPRPRPRPRWSPRP, the “shrunken log2 fold change” value was 0.00212. To RRIRIRPPRLPRPRPRPRAFPRP belongs -0.0671; to RRIRVRPPRLPRPRPRPFVEPRP, -0.361.

In the case of RRIRHRPPRLPRPRPRPRSEPRP, the “shrunken log2 fold change” value came to 0.117. The result for RRIRVRPPRLPRPRPRPPKDPRP reads 0.219; that for RRIRIRPPRLPRPRPRPGYEPRP, -0.237; that for RRIRPRPPRLPRPRPRPDWDPRP, 0.00947. For RRIRTRPPRLPRPRPRPAVRPRP, the “shrunken log2 fold change” value came out at 0.203. The result for RRIRFRPPRLPRPRPRPILIPRP reads -0.194.

For the sequence RRIRYRPPRLPRPRPRPRKGPRP, the “shrunken log2 fold change” value is -0.013. The result for RRIRLRPPRLPRPRPRPQMWPRP reads 0.0549; that for RRIRDRPPRLPRPRPRPSYGPRP, -0.0489. To RRIRARPPRLPRPRPRPMHEPRP belongs 0.671. Consider RRIRLRPPRLPRPRPRPWNDPRP, for which the “shrunken log2 fold change” value is 0.041. To RRIRRRPPRLPRPRPRPERYPRP belongs 0.00129; to RRIRWRPPRLPRPRPRPMFSPRP, -0.0364; to RRIRKRPPRLPRPRPRPKSLPRP, 0.107. The result for RRIRNRPPRLPRPRPRPWKAPRP reads -0.0227; that for RRIRQRPPRLPRPRPRPAPIPRP, 0.34; that for RRIRDRPPRLPRPRPRPHEDPRP, 0.0325. To RRIRCRPPRLPRPRPRPWPSPRP belongs -0.0603; to RRIRCRPPRLPRPRPRPVSAPRP, 0.15.

In the case of RRIRMRPPRLPRPRPRPRAVPRP, the “shrunken log2 fold change” value is 0.989. Turning to RRIRTRPPRLPRPRPRPKMWPRP, the “shrunken log2 fold change” value is 0.307.

Take RRIRMRPPRLPRPRPRPLACPRP: the “shrunken log2 fold change” value was 0.244. Consider RRIRSRPPRLPRPRPRPDGDPRP, for which the “shrunken log2 fold change” value was -0.197. To RRIRQRPPRLPRPRPRPMGMPRP belongs 0.0187.

In the case of RRIRNRPPRLPRPRPRPMWSPRP, the “shrunken log2 fold change” value was -0.095. The result for RRIRARPPRLPRPRPRPRHAPRP reads 0.612.
